Experimental data: patent publication US20050048070A1 (published 2005)

What was measured:
Assay in all cases: summary map of the heterotypic association assay: GST deletion protein incubated with the complementary keratin, then stained with COU-1
[1] = target: T1, K8(1-65)/intact K18 heterotypic complex (human, UniProt P05787 2-66; P05783 2-430)
T1 construct: Heterotypic complex of two GST fusion proteins; not shown: glutathione S-transferase (GST) fusion partner, modified pGEX-2T vector
T1 sequence 1: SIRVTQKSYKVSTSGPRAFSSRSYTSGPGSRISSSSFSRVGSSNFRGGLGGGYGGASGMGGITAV
T1 sequence 2: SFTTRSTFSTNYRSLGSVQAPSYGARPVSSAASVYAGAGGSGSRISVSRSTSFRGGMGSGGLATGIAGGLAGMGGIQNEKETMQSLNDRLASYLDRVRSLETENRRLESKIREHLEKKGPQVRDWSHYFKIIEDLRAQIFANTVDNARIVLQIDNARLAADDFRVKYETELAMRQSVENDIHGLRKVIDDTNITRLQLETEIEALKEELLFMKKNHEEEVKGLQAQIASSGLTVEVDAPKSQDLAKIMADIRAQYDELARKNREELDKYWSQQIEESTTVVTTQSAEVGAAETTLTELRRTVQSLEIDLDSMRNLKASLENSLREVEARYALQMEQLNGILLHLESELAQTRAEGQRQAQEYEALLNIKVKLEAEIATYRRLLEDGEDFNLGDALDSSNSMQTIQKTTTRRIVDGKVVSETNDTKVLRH

[2] = target: T2, K8(240-483)/intact K18 heterotypic complex
T2 construct: one member of the group m25; not shown: N-terminal GST carrier (modified pGEX-2T) and its linker on the keratin constructs
T2 chain 1: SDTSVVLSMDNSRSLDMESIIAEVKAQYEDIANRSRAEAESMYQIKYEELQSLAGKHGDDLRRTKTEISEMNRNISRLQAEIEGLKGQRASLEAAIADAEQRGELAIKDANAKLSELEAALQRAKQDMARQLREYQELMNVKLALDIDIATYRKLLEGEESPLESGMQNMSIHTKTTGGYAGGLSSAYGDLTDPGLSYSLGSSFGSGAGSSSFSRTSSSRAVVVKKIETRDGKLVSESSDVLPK
T2 chain 2: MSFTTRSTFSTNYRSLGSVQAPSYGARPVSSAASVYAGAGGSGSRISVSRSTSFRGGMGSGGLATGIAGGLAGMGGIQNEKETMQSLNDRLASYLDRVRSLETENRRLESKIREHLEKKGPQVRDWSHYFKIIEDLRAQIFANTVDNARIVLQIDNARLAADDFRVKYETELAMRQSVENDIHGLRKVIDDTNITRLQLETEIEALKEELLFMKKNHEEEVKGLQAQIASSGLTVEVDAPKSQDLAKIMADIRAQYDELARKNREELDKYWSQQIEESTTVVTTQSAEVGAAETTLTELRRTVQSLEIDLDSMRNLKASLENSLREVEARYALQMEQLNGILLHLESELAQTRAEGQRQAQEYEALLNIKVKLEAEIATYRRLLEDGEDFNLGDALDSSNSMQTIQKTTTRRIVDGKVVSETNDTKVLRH

[3] = target: T3, K8(130-483)/intact K18 heterotypic complex
T3 construct: one member of the group m25; not shown: GST fusion partner (modified pGEX-2T) on the keratin proteins
T3 K8 fragment: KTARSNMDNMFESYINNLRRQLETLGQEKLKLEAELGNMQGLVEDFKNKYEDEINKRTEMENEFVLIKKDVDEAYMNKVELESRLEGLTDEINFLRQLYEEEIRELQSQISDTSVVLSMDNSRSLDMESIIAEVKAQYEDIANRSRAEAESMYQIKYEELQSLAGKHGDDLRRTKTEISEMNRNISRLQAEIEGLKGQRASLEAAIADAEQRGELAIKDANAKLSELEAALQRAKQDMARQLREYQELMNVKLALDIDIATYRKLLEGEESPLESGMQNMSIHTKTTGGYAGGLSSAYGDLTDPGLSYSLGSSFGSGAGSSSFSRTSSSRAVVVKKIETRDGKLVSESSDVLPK
T3 K18 intact: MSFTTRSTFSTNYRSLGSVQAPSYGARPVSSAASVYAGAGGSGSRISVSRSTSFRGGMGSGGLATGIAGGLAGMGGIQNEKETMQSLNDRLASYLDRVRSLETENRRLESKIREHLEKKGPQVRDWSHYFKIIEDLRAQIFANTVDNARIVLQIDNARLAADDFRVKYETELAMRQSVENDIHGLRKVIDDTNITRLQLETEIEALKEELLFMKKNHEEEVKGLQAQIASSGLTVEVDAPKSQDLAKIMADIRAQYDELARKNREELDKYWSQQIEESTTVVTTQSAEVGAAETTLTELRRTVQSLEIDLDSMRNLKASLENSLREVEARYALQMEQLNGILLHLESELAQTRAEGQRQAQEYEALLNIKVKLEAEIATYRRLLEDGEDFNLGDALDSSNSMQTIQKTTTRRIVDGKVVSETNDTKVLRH

[4] = target: T4, intact K8/K18(1-72) heterotypic complex (human, UniProt P05787 2-483; P05783 2-73)
T4 construct: Heterotypic complex of two GST fusion proteins; also called K18(1-72)/intact K8; not shown: glutathione S-transferase (GST) fusion partner, modified pGEX-2T vector
T4 chain 1: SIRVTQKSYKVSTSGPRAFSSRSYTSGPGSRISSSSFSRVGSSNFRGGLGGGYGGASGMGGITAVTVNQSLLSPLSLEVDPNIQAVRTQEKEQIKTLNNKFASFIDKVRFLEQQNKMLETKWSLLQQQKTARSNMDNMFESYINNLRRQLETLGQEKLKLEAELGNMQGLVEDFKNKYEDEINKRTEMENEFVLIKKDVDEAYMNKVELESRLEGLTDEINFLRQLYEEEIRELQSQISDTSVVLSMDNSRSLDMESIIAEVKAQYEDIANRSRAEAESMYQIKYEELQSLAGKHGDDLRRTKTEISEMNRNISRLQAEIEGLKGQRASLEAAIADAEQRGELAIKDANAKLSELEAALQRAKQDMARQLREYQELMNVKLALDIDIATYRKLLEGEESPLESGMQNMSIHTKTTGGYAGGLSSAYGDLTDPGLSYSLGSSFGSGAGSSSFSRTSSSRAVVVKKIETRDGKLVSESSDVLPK
T4 chain 2: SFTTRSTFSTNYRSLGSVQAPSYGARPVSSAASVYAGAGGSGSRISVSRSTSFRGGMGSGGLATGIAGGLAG

[5] = target: T5, K8(300-483)/intact K18 heterotypic complex
T5 construct: one member of the group m25; not shown: N-terminal GST carrier (modified pGEX-2T) and its linker on the keratin constructs
T5 chain 1: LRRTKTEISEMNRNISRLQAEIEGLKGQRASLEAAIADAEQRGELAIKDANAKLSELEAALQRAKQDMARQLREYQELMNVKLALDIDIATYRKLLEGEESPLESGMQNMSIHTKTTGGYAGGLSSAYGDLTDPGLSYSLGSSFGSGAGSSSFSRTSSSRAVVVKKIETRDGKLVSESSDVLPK
T5 chain 2: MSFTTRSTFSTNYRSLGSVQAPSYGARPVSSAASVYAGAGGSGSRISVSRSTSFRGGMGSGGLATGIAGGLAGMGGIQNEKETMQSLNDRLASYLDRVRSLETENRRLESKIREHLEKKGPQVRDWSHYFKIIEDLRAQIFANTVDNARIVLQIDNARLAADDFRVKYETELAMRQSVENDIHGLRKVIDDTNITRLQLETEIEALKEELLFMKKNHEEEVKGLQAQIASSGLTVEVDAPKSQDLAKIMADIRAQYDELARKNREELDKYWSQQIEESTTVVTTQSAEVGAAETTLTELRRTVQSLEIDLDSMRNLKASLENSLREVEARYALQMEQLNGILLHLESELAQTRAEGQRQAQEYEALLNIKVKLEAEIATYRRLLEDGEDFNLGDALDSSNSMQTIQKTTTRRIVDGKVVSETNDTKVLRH

[6] = target: T6, K8(343-483)/intact K18 heterotypic complex
T6 construct: one member of the group m25; not shown: N-terminal GST carrier (modified pGEX-2T) and its linker on the keratin constructs
T6 chain 1: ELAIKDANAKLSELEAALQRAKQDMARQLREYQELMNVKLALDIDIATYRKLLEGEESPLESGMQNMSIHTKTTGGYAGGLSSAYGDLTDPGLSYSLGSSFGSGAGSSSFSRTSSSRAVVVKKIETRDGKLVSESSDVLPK
T6 chain 2: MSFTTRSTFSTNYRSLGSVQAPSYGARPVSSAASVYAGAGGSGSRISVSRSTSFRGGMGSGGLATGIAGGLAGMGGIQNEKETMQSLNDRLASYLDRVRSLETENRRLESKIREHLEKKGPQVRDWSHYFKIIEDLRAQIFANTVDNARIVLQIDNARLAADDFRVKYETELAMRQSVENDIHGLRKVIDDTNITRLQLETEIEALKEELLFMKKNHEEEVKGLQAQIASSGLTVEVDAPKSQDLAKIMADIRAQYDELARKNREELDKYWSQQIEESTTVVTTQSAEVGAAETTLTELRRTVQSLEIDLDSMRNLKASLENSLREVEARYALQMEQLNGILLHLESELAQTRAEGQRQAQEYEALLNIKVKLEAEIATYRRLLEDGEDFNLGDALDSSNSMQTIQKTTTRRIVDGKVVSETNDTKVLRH

B1: human monoclonal IgM antibody COU-1 (antibody, V domains shown)
VH: GAEVKKPGASVKVSCKASDYTFSSYYMHWVRQAPGQGLEWMGIINPSGGSTSYAQKFQGRVTMTRDTSTNTVYMELSSLRSEDTAVYYCARDQVVVAATLSNYGMDVWGQGTTVTVSS
VL: ELTQSPGTLSLSPGERATLSCRASQSVSSSYLAWYQQKPGQAPRLLIYDASNRATGIPARFSGSGSGTDFTLTISSLEPEDFAVYYCQQGTNWGIAFGQGTRLDIKR
notes: Human IgM with kappa light chain, secreted by hybridoma B9165 (ECACC 87040201), purified from culture supernatant; also called HMab COU-1; HuMab COU-1
Question: Does B1 bind [1]?
Answer: no binding (tested: 5 µg/ml COU-1 (P-0285))

Question: Does B1 bind [2]?
Answer: no binding (tested: 5 µg/ml COU-1 (P-0285))

Question: Does B1 bind [3]?
Answer: no binding (tested: 5 µg/ml COU-1 (P-0285))

Question: Does B1 bind [4]?
Answer: no binding (tested: 5 µg/ml COU-1 (P-0285))

Question: Does B1 bind [5]?
Answer: no binding (tested: 5 µg/ml COU-1 (P-0285))

Question: Does B1 bind [6]?
Answer: no binding (tested: 5 µg/ml COU-1 (P-0285))
